Test [1] addresses factor present in the activated CD3+ selected human T-cell conditioned media (human). Briefly: cell-based or functional assay.
Test [2] has as its target factor present in the activated monkey spleen conditioned media (monkey). The experiment in a line: cell-based or functional assay.

B1: zalpha11CFLG soluble receptor (zalpha11 extracellular domain with C-terminal FLAG tag) (receptor)
chain: not shown
With B1, in test [1], the “inhibition of BaF3/Zalpha11 cell growth (Alamar Blue), concentration giving complete inhibition” value (from here on “inhibition of BaF3/Zalpha11 cell growth”) is 10 µg/mL and the “titration of soluble receptor, lowest concentration giving complete inhibition of BaF3/Zalpha11 growth” value is 20 ng/mL. In test [2], the “inhibition of BaF3/Zalpha11 cell growth” value was determined as 10 µg/mL and the “titration of soluble receptor, lowest concentration giving complete inhibition of BaF3/Zalpha11 growth” value is 20 ng/mL.

B2: zalpha11CEE soluble receptor (zalpha11 extracellular domain with C-terminal Glu-Glu tag) (receptor)
chain: not shown
Regarding B2, in test [1], the “inhibition of BaF3/Zalpha11 cell growth” value came to 10 µg/mL and the “titration of soluble receptor, lowest concentration giving complete inhibition of BaF3/Zalpha11 growth” value was determined as 20 ng/mL. Besides, in test [2], the “inhibition of BaF3/Zalpha11 cell growth” value was 10 µg/mL and the “titration of soluble receptor, lowest concentration giving complete inhibition of BaF3/Zalpha11 growth” value amounted to 20 ng/mL.

For the origin of these results see patent EP2105446A2 (ZymoGenetics, Inc., dated 2009).
